According to US6500670:

Molecular target: T1, human pyruvate dehydrogenase E1alpha/E1beta subunit complex, co-expressed in and purified from E. coli M15, P08559
T1 chain 1: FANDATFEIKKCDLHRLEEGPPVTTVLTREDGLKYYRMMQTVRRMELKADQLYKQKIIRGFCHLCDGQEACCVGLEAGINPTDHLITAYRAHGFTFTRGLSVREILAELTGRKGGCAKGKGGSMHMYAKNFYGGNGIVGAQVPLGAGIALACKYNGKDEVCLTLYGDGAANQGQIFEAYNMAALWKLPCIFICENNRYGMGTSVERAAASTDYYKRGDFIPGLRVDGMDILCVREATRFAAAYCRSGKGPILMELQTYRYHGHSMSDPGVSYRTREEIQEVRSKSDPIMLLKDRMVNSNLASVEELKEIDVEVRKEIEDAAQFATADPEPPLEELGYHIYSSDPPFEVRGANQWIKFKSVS
T1 chain 2: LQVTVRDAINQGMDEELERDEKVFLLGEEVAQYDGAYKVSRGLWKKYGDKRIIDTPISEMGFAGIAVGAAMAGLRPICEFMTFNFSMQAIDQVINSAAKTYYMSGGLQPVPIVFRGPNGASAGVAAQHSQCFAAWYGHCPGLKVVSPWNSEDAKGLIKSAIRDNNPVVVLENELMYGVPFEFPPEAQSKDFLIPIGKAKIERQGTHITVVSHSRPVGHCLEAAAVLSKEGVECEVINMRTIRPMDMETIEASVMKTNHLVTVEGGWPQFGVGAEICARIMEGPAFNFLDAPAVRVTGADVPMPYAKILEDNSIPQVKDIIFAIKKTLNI

B1: Arabidopsis thaliana pyruvate dehydrogenase kinase (PDHK) fusion protein, product of clone YA5 expressed in E. coli from construct pZTa5 (pTrcHisB vector) (protein)
chain: MAVKKACEMFPKSLIEDVHKWGCMKQTGVSLRYMMEFGSKPTERNLLISAQFLHKELPIRVARRAIELQTLPYGLSDKPAVLKVRDWYLESFRDMRAFPEIKDSGDEKDFTQMIKAVKVRHNNVVPMMALGVNQLKKGMNSGNLDEIHQFLDRFYLSRIGIRMLIGQHVELHNPNPPLHTVGYIHTKMSPMEVARNASEDARSICFREYGSAPEINIYGDPSFTFPYVPTHLDLMMYELVKNSLRAVQERFVDSDRVAPPIRIIVADGIEDVTIKVSDEGGGIARSGLPRIFTYLYSTARNPLEEDVDLGIADVPGTMGGYGYGLPISRLYARYFGGDLQIISMEGYGTDAYLHLSRLGDSQEPLP
  in vitro phosphorylation (incorporation of 32P from gamma-32P-ATP into the E1 subunit; SDS-PAGE and autoradiography; 2, 5, 10, 15, 20 min): time-dependent (incubation times of 2, 5, 10, 15, or 20 min) in vitro phosphorylation of the E1α/E1β complex substrate by the action of the plant PDHK (clone YA5) fusion protein
